Measurements published in patent US10058586B2, “Use of human small leucine zipper protein in adipocyte differentiation procedure” (Korea University Research and Business Foundation, priority 2013, dated 2018).

Columns and labels:
[1] = molecular target: T1, PPARγ2 (Homo sapiens, UniProt P37231); assay: Fluorescence microscopy, subcellular localization of sLZIP and PPARγ2 in C3H10T1/2 cells; format: cell-based; conditions: GFP-PPARγ2 and Flag-sLZIP
T1 sequence (P37231 1-505): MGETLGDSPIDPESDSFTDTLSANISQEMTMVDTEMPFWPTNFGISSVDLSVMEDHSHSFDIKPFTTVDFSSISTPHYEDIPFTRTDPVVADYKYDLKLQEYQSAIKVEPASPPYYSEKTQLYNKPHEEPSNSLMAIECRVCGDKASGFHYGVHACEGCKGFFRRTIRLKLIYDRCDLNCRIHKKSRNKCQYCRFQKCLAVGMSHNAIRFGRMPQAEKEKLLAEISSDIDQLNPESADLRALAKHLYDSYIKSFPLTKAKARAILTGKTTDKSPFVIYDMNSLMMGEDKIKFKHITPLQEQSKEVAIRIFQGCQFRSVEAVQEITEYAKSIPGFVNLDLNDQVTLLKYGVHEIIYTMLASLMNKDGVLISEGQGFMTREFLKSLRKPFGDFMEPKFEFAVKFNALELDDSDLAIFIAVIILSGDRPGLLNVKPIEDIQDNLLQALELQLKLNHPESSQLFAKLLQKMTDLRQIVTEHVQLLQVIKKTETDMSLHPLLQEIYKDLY
Experimental: (§1) C3H10T1/2 cells were transiently ci-transfected with Flag-sLZIP, GFP-PPARγ2 or GFP-sLZIP, and HDAC3 was grown on cover slip. After 24 hours, the cells were fixed with 4% paraformaldehyde for 10 minutes and permeabilized 0.2% Triton-X 100 for 5 minutes. The cells were incubated with 1% BSA for one hour, and then incubated with anti-Flag and anti-HDAC3 antibodies overnight at 4° C. The cells were washed with PBS, and then were incubated with Texas Red-labeled antibodies for 2 hours. A cover slide was washed with PBS, and mounted on and examined using a LSM 510 META confocal microscopy (Carl Zeiss, Jena, Germany).
In order to examine whether the transcriptional activity of PPARγ2 is regulated by interaction with sLZIP, interaction between sLZIP and PPARγ2 was examined. For this purpose, 293T cells were transfected with GST-sLZIP and Myc-PPARγ2. Cell lysates were obtained and GST pull-down analysis was performed using a glutathione 4B bead. A protein complex was analyzed in SDS-PAGE and then immunoblotted with specific antibodies (FIG. 2A). […] Proteins bound to the bead were analyzed in SDS-PAGE, and then immunoblotted with anti-PPARγ2 and anti-His antibodies (FIG. 2C). GFP-PPARγ2 and Flag-sLZIP constructs were expressed in C3H10T1/2 cells, and analyzed using mouse anti-Flag and Texas Red-labeled anti-mouse antibodies under a fluorescence microscope. […]

[2] = molecular target: T2, HDAC3 (Mus musculus, UniProt O88895); assay: Fluorescence microscopy, subcellular localization of sLZIP and HDAC3 in C3H10T1/2 cells; format: cell-based; conditions: GFP-sLZIP, anti-HDAC3
T2 construct: endogenous in cells; host or cells: C3H10T1/2 cells expressing GFP-sLZIP
T2 sequence (O88895 1-428): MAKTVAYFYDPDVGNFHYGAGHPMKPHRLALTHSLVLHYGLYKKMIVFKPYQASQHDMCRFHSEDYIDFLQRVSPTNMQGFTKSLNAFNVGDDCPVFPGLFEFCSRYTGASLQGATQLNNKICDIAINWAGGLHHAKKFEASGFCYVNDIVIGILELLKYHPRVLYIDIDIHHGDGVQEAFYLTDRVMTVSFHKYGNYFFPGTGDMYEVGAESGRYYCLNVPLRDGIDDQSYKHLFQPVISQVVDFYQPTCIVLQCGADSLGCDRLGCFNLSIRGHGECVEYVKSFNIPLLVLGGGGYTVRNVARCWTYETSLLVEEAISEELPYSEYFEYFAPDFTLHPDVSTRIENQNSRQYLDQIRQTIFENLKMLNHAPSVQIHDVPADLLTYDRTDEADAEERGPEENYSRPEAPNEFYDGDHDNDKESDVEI
Experimental: as §1
For this purpose, 293T cells were transiently transfected with PPARγ2 (0.5 μg), (3-galactosidase (0.1 μg), FABP4-Luc reporter genes (0.2 μg) and sLZIP (0.1 μg). After the transfection, the cells were stimulated with or without 10 nM of RZD and 10 nM of TSA (FIG. 4A). A promoter activity was measured according to luciferase analysis. In the 293T cells, FABP4-Luc reporter genes, sLZIP, PPAR, β-galactosidase, and 100 nM of si-RNAs and HDAC1, 2, 3 and 8 for a control group were expressed. After the transfection, the cells were stimulated with or without 10 nM of RZD, and a promoter activity was measured (FIG. 4B). […] A protein complex was analyzed in SDS-PAGE, and anti-GST and anti-Flag antibodies were used for immunoblotting (FIG. 4E). *, P<0.05; **, P<0.01

B1: sLZIP: human small leucine-zipper protein, isoform of LZIP, 354 amino acids, no transmembrane domain; GenBank FJ263669, SEQ ID NO: 1 (protein, listed as Homo sapiens)
chain: MELELDAGDQDLLAFLLEESGDLGTAPDEAVRAPLDWALPLSEVPSDWEVDDLLCSLLSPPASLNILSSSNPCLVHHDHTYSLPRETVSMDLESESCRKEGTQMTPQHMEELAEQEIARLVLTDEEKSLLEKEGLILPETLPLTKTEEQILKRVRRKIRNKRSAQESRRKKKVYVGGLESRVLKYTAQNMELQNKVQLLEEQNLSLLDQLRKLQAMVIEISNKTSSSSMYSSDTRGSLPAEHGVLSRQLRALPSEDPYQLELPALQSEVPKDSTHQWLDGSDCVLQAPGNTSCLLHYMPQAPSAEPPLEWPFPDLFSEPLCRGPILPLQANLTRKGGWLPTGSPSVILQDRYSG
B1 was tested, and the “subcellular localization of sLZIP and PPARγ2” value [1] was “localized in the nucleus together with PPARγ2” and the “subcellular localization of sLZIP and HDAC3” value [2] was “localized in the nucleus together with HDAC3”.
